Assay [1] deals with TMEM233 (human) (UniProt B4DJY2).
Assay [2] shares this target. Put plainly: fluorescent ligand binding to cells (plate reader); ExTxA-488 (1–300 nM) with mock- or TMEM233-transfected HEK293 and HEK293-NaV1.7 cells in suspension, 250 mM NaCl, 25 mM HEPES, pH 7, 30 min at 4 °C, washed three times; fluorescence intensity read in 384-well plate; EC50 told for NaV1.7/TMEM233 co-expressing cells.

TMEM233 (human), sequence (B4DJY2 whole entry): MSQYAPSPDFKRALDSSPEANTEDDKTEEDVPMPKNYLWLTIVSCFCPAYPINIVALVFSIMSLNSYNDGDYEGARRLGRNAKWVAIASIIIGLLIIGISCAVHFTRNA
Alexa488-tagged excelsatoxin A (peptide), sequence (P0DQP3 38-73 limits assumed): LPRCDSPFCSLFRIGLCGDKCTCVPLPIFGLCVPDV

As usually defined, the EC50 is the concentration that produces a half-maximal response. A high value points to weaker potency. “Alexa488-tagged excelsatoxin A (peptide)” displayed an EC50 of functional potency on NaV1.7 inactivation in NaV1.7/TMEM233 co-expressing cells (electrophysiology) in assay [1] of 80.9 nM. In assay [2], this substance returned a concentration for a half-maximal effect (EC50) of 126 nM.
